Consider four molecules from patent US20250277020A1 (Boehringer Ingelheim, published 2025).

Several values for one entry are separate records, joined by “and”; a condition that tells them apart may be missing. Identical values can stand only once.

For experiment [1], the target named is T1, Human N-terminal fragment of CTGF (CTGF-NTF) (human, UniProt P29279 27-180).
T1 construct: Recombinantly expressed; also called hCTGF NTF; CTGF N-terminal fragment
T1 chain: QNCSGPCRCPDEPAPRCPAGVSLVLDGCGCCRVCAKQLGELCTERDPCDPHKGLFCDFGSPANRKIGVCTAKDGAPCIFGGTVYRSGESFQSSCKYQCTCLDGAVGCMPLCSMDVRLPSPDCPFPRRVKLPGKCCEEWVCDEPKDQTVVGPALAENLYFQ
The experiment can be described thus: SPR Biacore 8K+, mAb captured on Protein A/G, hCTGF NTF as analyte. The method, then: (§1) Binding affinity of anti-CTGF antibodies H1 (having the light chain of SEQ ID NO: 22 and the heavy chain of SEQ ID NO: 23), H2 (having the light chain of SEQ ID NO: 24 and the heavy chain of SEQ ID NO: 25), F1, and A97 for full length human CTGF or human CTGF N-terminal fragment are determined by surface plasmon resonance (SPR).
(§2) Surface plasmon resonance is conducted using a Biacore 8K+ (Cytiva). Protein A/G (Thermo Scientific) is amine coupled to CM5 Sensor S Chip (Cytiva). For binding to hCTGF N-terminal fragment (NTF), anti-CTGF antibody (1 μg/ml) is captured on the Protein A/G surface, followed by various concentrations of antigen (100 nM to 0.78 nM; 2-fold dilutions). For binding to hCTGF full length, anti-CTGF antibody (0.2 μg/ml) is captured followed by various concentrations of antigen (10 nM to 0.156 nM; 2-fold dilutions).
(In general: Surface plasmon resonance follows binding to a sensor surface in real time, without labels.)

The target of experiment [2] is T2, Full-length human CTGF (human, UniProt P29279 27-349).
T2 construct: Corresponds to NCBI NP_001892.1 with the signal peptide omitted; purchased from R&D Systems; also called hCTGF full length; full length CTGF
T2 sequence: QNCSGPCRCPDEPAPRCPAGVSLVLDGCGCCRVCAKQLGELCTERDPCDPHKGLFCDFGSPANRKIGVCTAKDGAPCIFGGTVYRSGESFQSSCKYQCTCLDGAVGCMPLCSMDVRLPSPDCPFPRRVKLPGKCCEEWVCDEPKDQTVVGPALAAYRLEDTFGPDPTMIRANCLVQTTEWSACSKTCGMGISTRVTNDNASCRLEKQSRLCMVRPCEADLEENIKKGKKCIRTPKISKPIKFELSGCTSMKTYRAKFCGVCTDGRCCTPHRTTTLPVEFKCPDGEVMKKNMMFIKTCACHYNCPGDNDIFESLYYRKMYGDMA
The experiment can be described thus: SPR Biacore 8K+, mAb captured on Protein A/G, full length hCTGF as analyte. The method, then:
as §1, §2

For experiment [3], the target named is T2, Full-length human CTGF. The experiment can be described thus: SPR, full length CTGF; Table 15 screen of humanized variants, SPR on full length CTGF. The procedure, abridged:
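Humanized antibody variants were made by co-expressing each of eight heavy-chain variable-region variants with each of sixteen light-chain variable-region variants in CHO cells, giving 128 combinations. Binding affinity (Kd) of each combination for full-length human CTGF was determined by surface plasmon resonance. The text gives no instrument, chip, concentrations, temperature, buffer, replicates or fitting model for this measurement.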

B1: Antibody H2 (antibody, human IgG1, kappa, V domains shown)
VH: EVQLVESGGGLVQPGGSLRLSCAASGFSFNTYAMNWVRQAPGKGLEWVARIRTKSNNYATYYADSVKDRFTISRDDSESSLYLQMNSLKTEDTAVYYCVETGFAYWDQGTLVTVSS
VL: EIVLTQSPATLSLSPGERATLSCSASSSVSYMHWFQQKPGQSPKLWIYSTSNLASGVPARFSGSGSGTDYTLTISSLEPEDFAVYYCQQRSSYPLTFGQGTKLEIKR
notes: Comparator anti-CTGF antibody, full length
In general, Kd refers to a measure of binding affinity in units of concentration. Lower therefore signals tighter binding. A word on the koff: it is the first-order rate constant of dissociation. For orientation: kon means the second-order rate constant of association. In the case of B1, in experiment [1], the Kd is 45.7 nM and 46 nM; the koff is 0.0175 s⁻¹; the on-rate (kon) was 383000 M⁻¹ s⁻¹. Also, in the experiment with Full-length human CTGF [2], the equilibrium dissociation constant (Kd) was 0.554 nM and 0.55 nM; the off-rate constant (koff) was 0.00149 s⁻¹; the kon amounted to 2.7e+06 M⁻¹ s⁻¹.

B2: Antibody A97 (antibody, human IgG1, kappa, L234A L235A)
light: VVMTQTPLSLSVSLGDQASISCKSSQSIVHYNGNTYLEWYLQKPGQSPQLLIYKVSSRASGVPDRFSGSGSGTDFTLKISRVEAEDLGVYYCFQGSHFPLTFGQGTKLEIKRTVAAPSVFIFPPSDEQLKSGTASVVCLLNNFYPREAKVQWKVDNALQSGNSQESVTEQDSKDSTYSLSSTLTLSKADYEKHKVYACEVTHQGLSSPVTKSFNRGEC
heavy: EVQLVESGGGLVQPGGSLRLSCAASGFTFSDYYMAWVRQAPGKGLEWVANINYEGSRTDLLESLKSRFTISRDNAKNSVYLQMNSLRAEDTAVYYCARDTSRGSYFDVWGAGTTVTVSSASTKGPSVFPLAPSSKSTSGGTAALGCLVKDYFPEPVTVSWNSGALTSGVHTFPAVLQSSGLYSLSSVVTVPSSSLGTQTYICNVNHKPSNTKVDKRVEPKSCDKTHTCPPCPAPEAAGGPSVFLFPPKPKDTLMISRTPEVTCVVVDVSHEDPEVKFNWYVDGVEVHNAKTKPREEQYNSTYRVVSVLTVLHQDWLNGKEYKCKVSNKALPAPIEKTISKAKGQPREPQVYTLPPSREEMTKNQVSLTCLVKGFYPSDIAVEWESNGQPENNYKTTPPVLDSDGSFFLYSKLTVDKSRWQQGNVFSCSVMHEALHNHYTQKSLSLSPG
notes: also called Antibody 97
As to B2, in experiment [1], the Kd turned out to be 0.14 nM, the koff is 4e-05 s⁻¹ and the association rate constant (kon) was 290000 M⁻¹ s⁻¹. In the experiment with Full-length human CTGF [2], this molecule returned a Kd of 0.0018 nM, an off-rate constant (koff) of 4.8e-06 s⁻¹ and an on-rate constant (kon) of 2.7e+06 M⁻¹ s⁻¹. Besides, in the experiment with Full-length human CTGF [3], binding was put at a Kd of 0.14 nM.

B3: Antibody H1 (antibody, human IgG1, lambda, V domains shown)
VH: EVTLKESGPVLVKPTETLTLTCTVSGFSLSTFGVHWIRQPPGKGLEWLGVIWRRGGTDYNAAFMSRLTISKDTSKSQVVFTMTNMDPVDTATYYCARDGGFDYWGQGTTVTVSS
VL: ETVVTQEPSLTVSPGGTVTLTCRSSIGAVTTSNYANWVQQKPGQAFRGLIGGTSNRAPWTPARFSGSLLGGKAALTLSGVQPEDEAEYYCALWYSTHYVFGGGTKLTVLG
notes: as for B1
In the case of B3, in experiment [1], the dissociation constant (Kd) is 8.82 nM and 8.8 nM; the koff was 0.0107 s⁻¹; the kon is 1.22e+06 M⁻¹ s⁻¹. Further, in the experiment with Full-length human CTGF [2], the equilibrium dissociation constant (Kd) is 0.0983 nM and 0.098 nM; the koff was found to be 0.000671 s⁻¹; the on-rate constant (kon) worked out at 6.83e+06 M⁻¹ s⁻¹.

B4: Antibody F1 (antibody, V domains shown)
VH: EGQLVQSGGGLVHPGGSLRLSCAGSGFTFSSYGMHWVRQAPGKGLEWVSGIGTGGGTYSTDSVKGRFTISRDNAKNSLYLQMNSLRAEDMAVYYCARGDYYGSGSFFDCWGQGTLVTVSS
VL: DIQMTQSPSSLSASVGDRVTITCRASQGISSWLAWYQQKPEKAPKSLIYAASSLQSGVPSRFSGSGSGTDFTLTISSLQPEDFATYYCQQYNSYPPTFGQGTKLEIKR
notes: as for B1
For B4, in experiment [1], the Kd was 30.3 nM and 30 nM; the off-rate constant (koff) came out at 0.0105 s⁻¹; the association rate constant (kon) was found to be 345000 M⁻¹ s⁻¹. For the same molecule, in the experiment with Full-length human CTGF [2], the Kd was 0.247 nM and 0.25 nM; the koff was determined as 0.00337 s⁻¹; the association rate constant (kon) turned out to be 1.37e+07 M⁻¹ s⁻¹.
